The source of these data is US20250269018A1, “COMBINED CANCER THERAPY WITH AN EPITHELIAL CELL ADHESION MOLECULE (EPCAM) INHIBITOR AND A HEPATOCYTE GROWTH FACTOR RECEPTOR (HGFR) INHIBITOR” (ACADEMIA SINICA, priority 2021, published 2025).

In one data set the test system is HGFR signaling. Kind of data set: Western blotting of phosphorylated ERK and AKT in HT29 cells. The class given is cell-based, human. The note with it: SU11274 with EpEX-His, FIG. 2C. On the procedure: (§1) FIGS. 2A to 2K. EpEX promotes tumor progression via HGFR signaling. (FIG. 2A) WT or EpCAM knockout (KO) HCT116 and HT29 cells treated with HGF (0.5 nM) for 15 min. The phosphorylation of HGFR, AKT, and ERK was examined by Western blotting. (FIG. 2B) WT or KO HCT116 and HT29 cells were treated with HGF (0.5 nM) with 2% FBS for the indicated times. Cell growth was examined by the WST-1 assay. (FIG. 2C) Starved HCT116 cells were treated with HGFR inhibitor SU11274 (SU, 10 μM) for 1 h then treated with 50 nM of EpEX-His for 15 min. The levels of phosphorylated HGFR, EGFR, AKT, and ERK were examined by Western blotting. HCT116 and HT29 cells were treated with 50 nM EpEX and SU (10 μM). […]
Whole cell extracts were prepared with RIPA buffer (50 mM Tris-HCl pH7.4, 1% NP-40, 0.5% Sodium deoxycholate, 0.1% SDS, 150 mM NaCl, 2 mM EDTA, 50 mM NaF). Protein concentrations of the cell lysates were determined by the Bradford assay. […]
Appropriate horseradish peroxidase-associated secondary antibodies (Millipore) were applied and the membranes were incubated at room temperature (RT) for 1 h. The protein bands were subsequently visualized with chemiluminescence reagents (Millipore) and detected on a BioSpectrum 600 Imaging system (UVP). The protein level was quantified from band intensity using Gel-Pro analyzer 3.1 (Media Cybernetics).
Background: In western blotting, separated proteins are transferred to a membrane and probed.

The next data set relates to HT29 cells. Kind of data set: Cell growth by WST-1 assay, HT29. The class given is cell-based, human. The note with it: 50 nM EpEX and SU 10 μM, FIG. 2D. On the procedure:
as §1, with “μM). (FIG. 2D) Cell growth was examined by WST-1 assay after treatment for indicated time. (FIG. 2E) HCT116 cells were treated with shLuc or HGFR shRNA then treated with 50 nM of EpEX-His for 15 min. The levels of phosphorylated HGFR, EGFR, ERK, and AKT were examined in HGFR knockdown HCT116 cells by Western blotting. (FIG. 2F) The levels of phosphorylated ADAM17 and presenilin 2 were examined by Western blotting.” for “μM).”
Cell viability was assayed by measuring mitochondrial dehydrogenase activity with the WST-1 (4-[3-(4-lodophenyl)-2-(4-nitrophenyl)-2H-5-tetrazolio]-1, 3-benzene disulfonate) assay. […] Following the incubation, absorbance of each well was detected at 450 nm using a spectrophotometric microplate reader.
For orientation: Tetrazolium dyes change colour on reduction, which living cells bring about.

Data set [1] has as its system GSK3β, active β-catenin and Snail. Kind of data set: Western blotting of GSK3β, active β-catenin, Snail and EMT proteins in HCT116 cells. Format: cell-based, human.
The test system of a further data set is HT29-Luc cells. Kind of data set: Orthotopic animal model, HT29-Luc. The note with it: FIG. 9H, 9I.

Procedure for HT29-Luc cells: (FIG. 9C) Timeline of the experiment to evaluate EpAb2-6 and/or crizotinib in the in orthotopic animal models. (FIG. 9D) NOD/SCID mice received orthotopic implantation of HCT116-Luc cells and then were treated with control IgG (normal mouse IgG, NMIgG), crizotinib, EpAb2-6, or crizotinib combined with EpAb2-6 starting at 3 days after tumor inoculation (n=5). Tumor growth was monitored by examining bioluminescence with the IVIS 200 Imaging System. (FIG. 9E) HCT116-Luc tumor cells monitored by bioluminescence quantification. […] (FIG. 9H) NOD/SCID mice were orthotopically implanted with HT29-Luc cells and then treated with control IgG, crizotinib, EpAb2-6, or crizotinib combined with EpAb2-6 starting at 3 days after tumor inoculation (n=5). Tumor growth was monitored by examining bioluminescence with an IVIS 200 Imaging System. (FIG. 9I) HT29-Luc tumor cells monitored by bioluminescence quantification.
Orthotopic tumor models were created as previously reported (Chen et al., 2020). Briefly, NSCID mice were used for orthotopic implantation of HCT116 cells previously infected with Lenti-luc virus (lentivirus containing luciferase gene). […] Tumor development was monitored by bioluminescence imaging. […] Tumor progression was monitored by quantification of bioluminescence. Mouse survival was also monitored.

Take `Cc1[nH]c(C=C2C(=O)Nc3ccc(S(=O)(=O)N(C)c4cccc(Cl)c4)cc32)c(C)c1C(=O)N1CCN(C)CC1` (stereo in doubt) [SU11274, (3Z)-N-(3-Chlorophenyl)-3-({3,5-dimethyl-4-[(4-methylpiperazin-1-yl)carbonyl]-1H-pyrrol-2-yl}methylene)-N-methyl-2-oxo-2,3-dihydro-1H-indole-5-sulfonamide]: the “EpEX-mediated ERK and AKT phosphorylation” value with HGFR signaling was “attenuate EpEX-mediated ERK and AKT phosphorylation”. The “EpEX-induced increases in cell viability and proliferation” value with HT29 cells was “abolished the EpEX-induced increases in cell viability and proliferation”.

B1: EpAb2-6: anti-EpCAM neutralizing monoclonal antibody targeting EpEX; VH SEQ ID NO: 15, VL SEQ ID NO: 16 (antibody, listed as Homo sapiens, V domains shown)
VH: VKLQESGPELKKPGETVKISCKASGYTFTDYSMHWVKQAPGKGLKWMGWINTETGEPTYADDFKGRFAFSLETSASTAYLQINNLKNEDTATYFCARTAVYWGQGTTVTVSS
VL: DIQMTQSPSSLSASLGERVSLTCRASQEISVSLSWLQQEPDGTIKRLIYATSTLDSGVPKRFSGSRSGSDYSLTISSLESEDFVDYYCLQYASYPWTFGGGTKLEIKRADAAPTVS
As to B1, the “Active β-catenin and Snail steady-state protein levels” value in data set [1] (10 μM MG132 and EpAb2-6 for 6 h, FIG. 6I) was “reduced”. In addition, in data set [1] (24 h, FIG. 6H), the “activating phosphorylation of GSK3β at Y216 (active GSK3β)” value was “increased activating phosphorylation of the protein at Y216” and the “suppressive phosphorylation of GSK3β at S9 (inactive GSK3β)” value is on record as “decreased suppressive phosphorylation of GSK3β at S9”. Further, in data set [1] (24 h, vs control IgG, FIG. 6G), the “levels of E-cadherin” value was “increased the levels of E-cadherin”; the “levels of Snail and the active β-catenin” value is “decreasing Snail and the active β-catenin”. Moreover, the bioluminescence intensities entry with HT29-Luc cells was “significantly decreased compared to the control IgG or crizotinib alone groups”.
